Experimental data from US11912970B2, “Universal microfluidic culture system to analyze and control cell dynamics” (The University of Chicago, priority 2017, dated 2024).

Columns and labels:
Type in all cases: cell-based, mouse
mice HSCs = assay: M-CSF induced differentiation of mice HSCs on chip; settings: media replacement through the buffering layer
Excerpt: FIG. 11B(I) depicts the culture of mice HSCs cells in suspension mode, and (II) depicts the differentiation of mice HSCs cells by introducing M-CSF differentiation media.
Murine hematopoietic stem cells (HSC) are isolated by FACSAria III flow cytometer (BD Biosciences) as Lin−/c-Kit+/Sca-1+/CD48−/CD150+/CD34− (lineage, Lin: CD3e/CD11b/CD19/CD41/B220/Gr-1/Ter-119), which are approximately 50% pure HSCs. Macrophage colony-stimulating factor (M-CSF), a myeloid cytokine released during infection and inflammation, is employed to induce HSCs differentiation. Human CD34+ cells were isolated from mononuclear cells using EasySepTM human CD34 positive selection kit (Stemcell Technologies, Vancouver, BC, Canada). CD34+CD38−CD45RA−CD90+CD49f+ HSCs were sorted using a FACSAria III flow cytometer (BD Biosciences). Pro- and anti-inflammatory cytokines including TNF, IFN[…], IL-6, IP10 and MCP-1 are introduced into the cellular environment as single ligand and in combination. Embryonic NSCs with Hes-GFP and Dcx-RFP reporters were isolated at embryonic day 13.5 from a transgenic mice carrying Hes-GFP and Dcx-RFP using standard protocol (Woo, et al., 2009; Basak, et al., 2007). The resulting primary cells were verified to carry both Hes5-GFP and Dcx-RFP after isolation and allowed to grow for few passages before use in the experiments (Giachino, et al., 2009). […]

NSCs [1] = assay: NSCs proliferation (cell number) under sequential ligand inputs (permutation test and decision tree analysis); settings: sequential input, ligand added at day 1
Excerpt: (§1) Murine hematopoietic stem cells (HSC) are isolated by FACSAria III flow cytometer (BD Biosciences) as Lin−/c-Kit+/Sca-1+/CD48−/CD150+/CD34− (lineage, Lin: CD3e/CD11b/CD19/CD41/B220/Gr-1/Ter-119), which are approximately 50% pure HSCs. Macrophage colony-stimulating factor (M-CSF), a myeloid cytokine released during infection and inflammation, is employed to induce HSCs differentiation. Human CD34+ cells were isolated from mononuclear cells using EasySepTM human CD34 positive selection kit (Stemcell Technologies, Vancouver, BC, Canada). CD34+CD38−CD45RA−CD90+CD49f+ HSCs were sorted using a FACSAria III flow cytometer (BD Biosciences). […]
(§2) For image acquisition, a Nikon Ti-ECLIPSE microscope with an automated translation stage and a digital CMOS camera (ORCA-Flash 4.0, Hamamatsu, Japan) was used. […] Bright field and fluorescence images were acquired and analyzed using a customized MATLAB program (Mathworks, […]). The algorithm extracts single cell traces including position, nuclear and cytoplasm fluorescence level. For example, the 3T3 cell nuclear area in each image is identified via the fluorescent nuclear marker GFP, and then the mean value of the nuclear intensity of the p65-DsRed marker is measured, and plotted as a function of time. […]

NSCs [2] = assay: NSCs proliferation (cell number) under combinatorial ligand inputs (permutation test and decision tree analysis); settings: combinatorial input, decision tree, without PACAP
Excerpt: as §1, §2

[3] = system: Hes5-GFP expression in NSCs; assay: NSCs Hes5-GFP expression under sequential ligand inputs (permutation test and decision tree analysis); settings: sequential input
Excerpt: as §1, §2

| Molecule | response of HSCs to ligand input (mice HSCs) | cell number relative to control (NSCs [1]) | cell number, mean ratio relative to control (NSCs [2]; Jagged present) | cell number, mean ratio relative to control (NSCs [2]; Jagged with DLL also added) | effect on Hes5 expression ([3]; DLL added before Jagged in the first 3 days) | Hes5 expression relative to control ([3]; ligand added at day 1) |
| --- | --- | --- | --- | --- | --- | --- |
| M-CSF: myeloid cytokine released during infection and inflammation, employed to induce HSCs differentiation (protein, UniProt P09603 33-554, looked up) Macrophage colony-stimulating …: EEVSEYCSHMIGSGHLQSLQRLIDSQMETSCQITFEFVDQEQLKDPVCYLKKAFLLVQDIMEDTMRFRDNTPNAIAIVQLQELSLRLKSCFTKDYEEHDKACVRTFYETPLQLLEKVKNVFNETKNLLDKDWNIFSKNCNNSFAECSSQDVVTKPDCNCLYPKAIPSSDPASVSPHQPLAPSMAPVAGLTWEDSEGTEGSSLLPGEQPLHTVDPGSAKQRPPRSTCQSFEPPETPVVKDSTIGGSPQPRPSVGAFNPGMEDILDSAMGTNWVPEEASGEASEIPVPQGTELSPSRPGGGSMQTEPARPSNFLSASSPLPASAKGQQPADVTGTALPRVGPVRPTGQDWNHTPQKTDHPSALLRDPPEPGSPRISSLRPQGLSNPSTLSAQPQLSRSHSSGSVLPLGELEGRRSTRDRRSPAEPEGGPASEGAARPLPRFNSVPLTDTGHERQSEGSFSPQLQESVFHLLVPSVILVLLAVGGLLFYRWRRRSHQEPQRADSPLEQPEGSPLTQDDRQVELPV | instantaneous response |  |  |  |  |  |
| Jagged: signaling ligand whose receptor is highly expressed during mouse forebrain development (protein, UniProt Q9QXX0 34-1218, looked up) Protein jagged-1: QFELEILSMQNVNGELQNGNCCGGVRNPGDRKCTRDECDTYFKVCLKEYQSRVTAGGPCSFGSGSTPVIGGNTFNLKASRGNDRNRIVLPFSFAWPRSYTLLVEAWDSSNDTIQPDSIIEKASHSGMINPSRQWQTLKQNTGIAHFEYQIRVTCDDHYYGFGCNKFCRPRDDFFGHYACDQNGNKTCMEGWMGPDCNKAICRQGCSPKHGSCKLPGDCRCQYGWQGLYCDKCIPHPGCVHGTCNEPWQCLCETNWGGQLCDKDLNYCGTHQPCLNRGTCSNTGPDKYQCSCPEGYSGPNCEIAEHACLSDPCHNRGSCKETSSGFECECSPGWTGPTCSTNIDDCSPNNCSHGGTCQDLVNGFKCVCPPQWTGKTCQLDANECEAKPCVNARSCKNLIASYYCDCLPGWMGQNCDININDCLGQCQNDASCRDLVNGYRCICPPGYAGDHCERDIDECASNPCLNGGHCQNEINRFQCLCPTGFSGNLCQLDIDYCEPNPCQNGAQCYNRASDYFCKCPEDYEGKNCSHLKDHCRTTTCEVIDSCTVAMASNDTPEGVRYISSNVCGPHGKCKSQSGGKFTCDCNKGFTGTYCHENINDCESNPCKNGGTCIDGVNSYKCICSDGWEGAHCENNINDCSQNPCHYGGTCRDLVNDFYCDCKNGWKGKTCHSRDSQCDEATCNNGGTCYDEVDTFKCMCPGGWEGTTCNIARNSSCLPNPCHNGGTCVVNGDSFTCVCKEGWEGPICTQNTNDCSPHPCYNSGTCVDGDNWYRCECAPGFAGPDCRININECQSSPCAFGATCVDEINGYQCICPPGHSGAKCHEVSGRSCITMGRVILDGAKWDDDCNTCQCLNGRVACSKVWCGPRPCRLHKSHNECPSGQSCIPVLDDQCFVRPCTGVGECRSSSLQPVKTKCTSDSYYQDNCANITFTFNKEMMSPGLTTEHICSELRNLNILKNVSAEYSIYIACEPSLSANNEIHVAISAEDIRDDGNPVKEITDKIIDLVSKRDGNSSLIAAVAEVRVQRRPLKNRTDFLVPLLSSVLTVAWVCCLVTAFYWCVRKRRKPSSHTHSAPEDNTTNNVREQLNQIKNPIEKHGANTVPIKDYENKNSKMSKIRTHNSEVEEDDMDKHQQKVRFAKQPVYTLVDREEKAPSGTPTKHPNWTNKQDNRDLESAQSLNRMEYIV |  | 111.0 % of the control | 1.14 | 1.08 | enhance Hes5 expression | 94.5 % of the control |
